# Entries after “also recorded” stand apart in the source; their conditions may differ.
# How the values were obtained:
# IκBα = IκBα phosphorylation by Western analysis in cardiac fibroblasts; format: cell-based, rat
# Protocol: Western analyses were performed as described previously (45). Membranes were incubated with primary antibodies overnight (anti-p44/42MAPK diluted 1:500; phospho-p44/42MAPK (Thr202/Tyr204) 1:1000; phospho-JNK (Thr183/Tyr185) 1:500; p38MAPK 1:500; phospho-p38MAPK (Thr180/Tyr182) 1:500; phospho-Akt (Ser473) 1:1000 and phospho-IκBα 1:1000, all from Cell Signaling, anti-mouse ST2L, from R&D 1:1000 and anti-IL-33 as described above, 1:500) at 4° C., detected with horseradish peroxidase-conjugated antibodies and enhanced chemiluminescence.
# [1] = system: rat neonatal cardiomyocytes; experiment: [3H]-leucine incorporation assay (hypertrophy); format: cell-based
# Protocol: Leucine incorporation in rat neonatal cardiomyocytes was detected as previously described (7). Cells were pre-incubated with 1.0 μCi/mL [^3H]leucine for 24 hours. The medium was aspirated, and the cells were washed twice with ice-cold PBS and once with 10% trichloroacetic acid (TCA; Sigma) and fixed for 45 minutes at 4° C. with 10% TCA. After washing twice with cold 95% ethanol, radioactivity incorporated into the TCA-precipitable material was determined by liquid scintillation counting after solubilization in 0.15N NaOH.
# Leucine incorporation in rat neonatal cardiomyocytes was detected as previously described (46). Cells were treated with 1.0 μCi/ml [^3H]-leucine for 24 hours, washed, fixed with 10% trichloroacetate (Sigma) for 45 minutes at 4° C., and then radioactivity was determined by liquid scintillation counting. An anti-mouse ST2 antibody (R&D) was used as a functional neutralizing antibody (12). A normal rat IgG2a (Sigma) and mouse IL-1Rrp2 (R&D) were used as controls for anti-mouse ST2 antibody (R&D) and mouse soluble ST2 (R&D), respectively.
# cardiomyocytes = experiment: Oxidative stress assay (DCFDA, ROS generation); format: cell-based, rat; details: co-treatment with IL-33
# Protocol: An assay to detect oxidative stress was performed as reported previously (48). Cardiomyocytes were incubated with 2,7-dichlorodihydrofluorecein diacetate (DCFDA) for 45 min, washed in phosphate-buffered saline, and fluorescence intensity was measured using a fluorometer (PerkinElmer Life Science) at 595 nm.
# [2] = system: rat neonatal cardiomyocytes; experiment: In vitro cell size measurement of cardiomyocytes; format: cell-based; details: with or without angiotensin-II (0.1 μM), IL-33 (10 ng/ml), anti-ST2 antibody (100 μg/ml)
# Protocol: Sarcomeric α-actinin staining for cardiomyocytes and BrdUrd labeling for cardiac fibroblasts were performed as described previously (5). Mouse monoclonal antibody to sarcomeric α-actinin (EA-53, Sigma) was diluted 1:100 and used. For cardiomyocyte size, cells were visualized using an inverted fluorescent microscope (IX-70; Olympus), and the surface area of the cardiomyocytes was calculated with ImagePro Express software. Cells from randomly selected fields were analyzed.
# Cell culture of rat neonatal cardiomyocytes and cardiac fibroblasts was performed as previously described (42, 43). Briefly, hearts from 1-3 day-old Sprague-Dawley rat neonates (Charles River) were digested with trypsin (1 mg/ml, GIBCO) and collagenase-II (0.8 mg/ml, Worthington), and plated on non-coated culture dishes for 1.5 hrs. Attached cells were further cultured with Dulbecco's Modified Essential Medium (GIBCO) containing 10% fetal bovine serum and used as cardiac fibroblasts after 2 passages. […]
# Immunofluorescence staining on paraffin-embedded mice hearts or rat neonatal cardiomyocyte cell culture was performed as described previously (42, 45). […] For measuring cardiomyocyte size, the surface area of the cells was calculated with ImagePro Express software. Cells from randomly selected fields were analyzed.
molecule,measurement,setting,value
"IL-33: recombinant mature rat IL-33, starting with amino acid 109 of the full-length protein, N-terminal His tag (GenBank BC081993) (protein, left off: small tags and cut ends) SIQGTSLLTESCALSTYNDQSVSFVLENGCYVINVEDCGKNQEKDKVLLRYYESSFPAQSGDGVDGKKLMVNMSPIKDTDIWLNANDKDYSVELQKGDVSPPDQAFFVLHKKSSDFVSFECKNLPGTYIGVKDNQLALVEENDESCNNIMFKLSKM",IκBα phosphorylation by agent alone,IκBα,induced IκBα phosphorylation in both cell types
same,hypertrophy (leucine uptake) induced by angiotensin-II or phenylephrine,[1]; co-treatment with IL-33,can block cardiac hypertrophy; also recorded: potently blocked cardiomyocyte hypertrophy; also recorded: abrogates angiotensin-II- and phenylephrine-induced hypertrophy in cardiomyocytes in vitro; also recorded: blocks hypertrophy induced by angiotensin II; also recorded: dose dependent ability to decrease hypertrophy induced by angiotensin II and phenylephrine; also recorded: can antagonize hypertrophic effects of angiotensin II and phenylephrine; also recorded: blocked angiotensin-II or phenylephrine-induced leucine uptake in a dose-dependent manner
same,"hypertrophy (leucine uptake), IL-33 alone",[1]; no other stimulus,"modest, dose-dependent pro-hypertrophic trend that was not statistically significant; also recorded: modest hypertrophic effect; also recorded: non-significant trend toward stimulating hypertrophy"
same,ROS generation in the presence of angiotensin-II or phenylephrine,cardiomyocytes,significantly decreased the generation of ROS; also recorded: inhibited by IL-33 in cardiomyocytes
same,cardiomyocyte cell size,[2],antihypertrophic effect of IL-33 was further confirmed
